Measurements from PMC8439582 (Nature structural & molecular biology, 2019).
Where two headings read alike, the source gives them in different places. One block for each binder: values may come before it.

B1: Tom22 with a C-terminal His-tag (natural protein, S. cerevisiae, UniProt P49334 1-152, looked up)
chain: MVELTEIKDDVVQLDEPQFSRNQAIVEEKASATNNDVVDDEDDSDSDFEDEFDENETLLDRIVALKDIVPPGKRQTISNFFGFTSSFVRNAFTKSGNLAWTLTTTALLLGVPLSLSILAEQQLIEMEKTFDLQSDANNILAQGEKDAAATAN
B2: Tom40 with a C-terminal Strep-tag (overexpressed, wild type) (natural protein, S. cerevisiae, UniProt P23644 1-387, looked up)
chain: MSAPTPLAEASQIPTIPALSPLTAKQSKGNFFSSNPISSFVVDTYKQLHSHRQSLELVNPGTVENLNKEVSRDVFLSQYFFTGLRADLNKAFSMNPAFQTSHTFSIGSQALPKYAFSALFANDNLFAQGNIDNDLSVSGRLNYGWDKKNISKVNLQISDGQPTMCQLEQDYQASDFSVNVKTLNPSFSEKGEFTGVAVASFLQSVTPQLALGLETLYSRTDGSAPGDAGVSYLTRYVSKKQDWIFSGQLQANGALIASLWRKVAQNVEAGIETTLQAGMVPITDPLMGTPIGIQPTVEGSTTIGAKYEYRQSVYRGTLDSNGKVACFLERKVLPTLSVLFCGEIDHFKNDTKIGCGLQFETAGNQELLMLQQGLDADGNPLQALPQL

Key:
[1] = target: B2; assay: cryo-EM structure
[2] = target: the molecule itself; assay: cryo-EM structure
[3] = target: the molecule itself; assay: SEC
[4] = target: B2; assay: cryo-EM structure; remark: listed apart in the source
[5] = target: B1; assay: cryo-EM structure

Binder: B1
binding result [1]: binds

Binder: B2
binding result [2]: binds

B3: core TOM complex from S. cerevisiae (Tom40, Tom22, Tom5, Tom6, Tom7) (complex)
chain 1: MSAPTPLAEASQIPTIPALSPLTAKQSKGNFFSSNPISSFVVDTYKQLHSHRQSLELVNPGTVENLNKEVSRDVFLSQYFFTGLRADLNKAFSMNPAFQTSHTFSIGSQALPKYAFSALFANDNLFAQGNIDNDLSVSGRLNYGWDKKNISKVNLQISDGQPTMCQLEQDYQASDFSVNVKTLNPSFSEKGEFTGVAVASFLQSVTPQLALGLETLYSRTDGSAPGDAGVSYLTRYVSKKQDWIFSGQLQANGALIASLWRKVAQNVEAGIETTLQAGMVPITDPLMGTPIGIQPTVEGSTTIGAKYEYRQSVYRGTLDSNGKVACFLERKVLPTLSVLFCGEIDHFKNDTKIGCGLQFETAGNQELLMLQQGLDADGNPLQALPQL
chain 2: MVELTEIKDDVVQLDEPQFSRNQAIVEEKASATNNDVVDDEDDSDSDFEDEFDENETLLDRIVALKDIVPPGKRQTISNFFGFTSSFVRNAFTKSGNLAWTLTTTALLLGVPLSLSILAEQQLIEMEKTFDLQSDANNILAQGEKDAAATAN
chain 3: MFGLPQQEVSEEEKRAHQEQTEKTLKQAAYVAAFLWVSPMIWHLVKKQWK
chain 4: MDGMFAMPGAAAGAASPQQPKSRFQAFKESPLYTIALNGAFFVAGVAFIQSPLMDMLAPQL
chain 5: MSFLPSFILSDESKERISKILTLTHNVAHYGWIPFVLYLGWAHTSNRPNFLNLLSPLPSV
stoichiometry N [3]: 2

B4: Tom7 (natural protein, S. cerevisiae, UniProt P53507 1-60, looked up)
chain: MSFLPSFILSDESKERISKILTLTHNVAHYGWIPFVLYLGWAHTSNRPNFLNLLSPLPSV
binding result [1]: binds

The remaining lines, values ahead:

binding result [4]: binds
B5: Tom6 (natural protein, S. cerevisiae, UniProt P33448 1-61, looked up)
chain: MDGMFAMPGAAAGAASPQQPKSRFQAFKESPLYTIALNGAFFVAGVAFIQSPLMDMLAPQL

binding result [5]: binds | binding result [1]: binds
Binder: MFGLPQQEVSEEEKRAHQEQTEKTLKQAAYVAAFLWVSPMIWHLVKKQWK (natural protein, S. cerevisiae, UniProt P80967 1-50, looked up) [Tom5]
